This passage reports decrease in color development with L-DOPA (tyrosinase activity in frozen sections of B16-V tumors) results from patent publication US7803750.

For this assay, the target named is tyrosinase protein of murine B16 melanoma tumors and melan-A murine melanocytes (murine) (UniProt P11344). As to the kind of experiment: cell-based or functional assay.
Sequence of UniProt P11344 (P11344 19-533 limits assumed): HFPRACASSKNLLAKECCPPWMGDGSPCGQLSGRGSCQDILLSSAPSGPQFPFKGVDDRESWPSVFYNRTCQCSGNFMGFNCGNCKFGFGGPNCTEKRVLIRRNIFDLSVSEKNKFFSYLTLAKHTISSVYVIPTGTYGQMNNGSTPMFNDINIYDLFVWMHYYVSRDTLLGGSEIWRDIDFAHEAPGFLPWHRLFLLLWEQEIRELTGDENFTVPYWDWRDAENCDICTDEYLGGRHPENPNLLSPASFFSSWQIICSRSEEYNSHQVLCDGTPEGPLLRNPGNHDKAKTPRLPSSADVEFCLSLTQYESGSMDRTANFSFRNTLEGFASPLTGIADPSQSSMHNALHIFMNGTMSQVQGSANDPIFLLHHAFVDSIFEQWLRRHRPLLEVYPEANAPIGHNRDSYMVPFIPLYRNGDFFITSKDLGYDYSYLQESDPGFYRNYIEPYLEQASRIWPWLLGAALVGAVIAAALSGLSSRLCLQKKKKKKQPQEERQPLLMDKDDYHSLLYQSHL

“epitope-tagged recombinant human (rh) ZAG (zinc alpha-2-glycoprotein) with myc and 6-His 3' epitope tags (from UniProt P25311 21-298)”: the decrease in color development with L-DOPA (tyrosinase activity in frozen sections of B16-V tumors) lay in the range of 25 to 50%.
